The record followed here is patent publication US20040224408A1, “THAP proteins as nuclear receptors for chemokines and roles in transcriptional regulation, cell proliferation and cell differentiation” (published 2004).

For this data set, the target named is T1, THAP1 THAP domain (Homo sapiens, UniProt Q9NVV9 SEQ:1-90).
T1 sequence: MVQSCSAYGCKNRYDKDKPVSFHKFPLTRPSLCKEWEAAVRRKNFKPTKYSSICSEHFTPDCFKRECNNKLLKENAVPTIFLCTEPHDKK
Briefly: EMSA; also no competition at 50-250x molar excess. Conditions: tags: C-terminal His6 (pET-21c); label: 32P. The method, then:
To confirm that the THAP domain is a novel sequence specific DNA-binding domain, electrophoretic mobility shift assays (EMSA) were carried out using wild-type or mutant THAP domain responsive elements (THRE) determined by SELEX (see Example 28 and FIGS. 18 and 24). Double-stranded probes used in EMSA experiments were purified on 12% polyacrylamide gels, ³²P end labeled with T4 polynucleotide kinase and quantified by Cerenkov counting. About 20 ng of purified THAP domain from human THAP1 (prepared as described in Example 28) was incubated with 30000 cpm of the appropriate probe (about 2 ng). Binding reactions were carried out for 10 minutes at room temperature in 20 μl binding buffer (20 mM Tris-HCl pH 7.5, 100 mM KCl, 0.1% NP-40, 100 μg/ml BSA, 2.5 mM DTT, 5% glycerol, 200 ng poly (dI-dC)). Electrophoresis was performed on 8% (29:1) polyacrylamide gels containing 5% glycerol. Gels were run in 0.25×TBE at 150V and 4° C., dried and exposed on a phosphoimager screen (Molecular Dynamics). […]

B1: 3mut1 (dsDNA)
DNA 1: AGCAAGTAATTTCAAACTACTTCAT
DNA 2: ATGAAGTAGTTTGAAATTACTTGCT
On to B1, for which the binding result is “no binding”.
